Test results from patent publication US20150344570A1 (published 2015).

T1: FcγRIIa R (human, UniProt P12318 34-217)
T1 construct: extracellular domain; also called FcgRIIa R type; 2aR
T1 sequence (looked up): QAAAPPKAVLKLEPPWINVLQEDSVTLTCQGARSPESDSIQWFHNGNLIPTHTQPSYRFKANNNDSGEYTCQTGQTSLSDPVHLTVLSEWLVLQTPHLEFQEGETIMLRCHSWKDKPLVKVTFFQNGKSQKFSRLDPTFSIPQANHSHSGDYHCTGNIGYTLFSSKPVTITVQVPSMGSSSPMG


target: T1, FcγRIIa R; test: SPR (Biacore), captured antibody, FcγR as analyte; relative binding activity
Method: Analysis of interaction between objective antibody and the FcγR was carried out using Biacore T100 (GE Healthcare). HBS-EP+ (GE Healthcare) was used as the running buffer, and the measurement temperature was set to 25° C. Chips produced by immobilizing the antigen peptide by the amine coupling method to a Series S Sencor Chip CM5 (GE Healthcare), or alternatively, chips produced by allowing preliminarily biotinylated antigen peptides to interact with and immobilize onto a Series S Sensor Chip SA (certified) (GE Healthcare) were used. Antibodies of interest were captured onto an antigen peptide-immobilized chip, and allowed to interact to each FcγR diluted with running buffer. To regenerate and repeatedly use the chip, the antibodies captured on the chip were washed off by reacting 10 mM glycine-HCl, pH 1.5.

Row | Ho/Con_2aR | Binder
1 | 43.3 % (GpH7-B3/GpL16-k0 = 100) | GpH7-B3 variant L234_04F/GpL16-k0 (antibody, human IgG1, kappa, also called Ho Ab L234_04F) heavy: not shown light: DIVMTQSPLSLPVTPGEPASISCQASESLVHSNRNTYLHWYLQKPGQSPQLLIYKVSNRFSGVPDRFSGSGSGTDFTLKISRVEAEDVGVYYCSQNTHVPPTFGQGTKVEIERTVAAPSVFIFPPSDEQLKSGTASVVCLLNNFYPREAKVQWKVDNALQSGNSQESVTEQDSKDSTYSLSSTLTLSKADYEKHKVYACEVTHQGLSSPVTKSFNRGEC
2 | 124 % (GpH7-B3/GpL16-k0 = 100) | GpH7-B3 variant N325_06M/GpL16-k0 (antibody, human IgG1, kappa, also called Ho Ab N325_06M) heavy: not shown light: DIVMTQSPLSLPVTPGEPASISCQASESLVHSNRNTYLHWYLQKPGQSPQLLIYKVSNRFSGVPDRFSGSGSGTDFTLKISRVEAEDVGVYYCSQNTHVPPTFGQGTKVEIERTVAAPSVFIFPPSDEQLKSGTASVVCLLNNFYPREAKVQWKVDNALQSGNSQESVTEQDSKDSTYSLSSTLTLSKADYEKHKVYACEVTHQGLSSPVTKSFNRGEC
3 | 77 % (GpH7-B3/GpL16-k0 = 100) | GpH7-B3 variant N325_07I/GpL16-k0 (antibody, human IgG1, kappa, also called Ho Ab N325_07I) heavy: not shown light: DIVMTQSPLSLPVTPGEPASISCQASESLVHSNRNTYLHWYLQKPGQSPQLLIYKVSNRFSGVPDRFSGSGSGTDFTLKISRVEAEDVGVYYCSQNTHVPPTFGQGTKVEIERTVAAPSVFIFPPSDEQLKSGTASVVCLLNNFYPREAKVQWKVDNALQSGNSQESVTEQDSKDSTYSLSSTLTLSKADYEKHKVYACEVTHQGLSSPVTKSFNRGEC
4 | 98.9 % (GpH7-B3/GpL16-k0 = 100) | GpH7-B3 variant L235_04F/GpL16-k0 (antibody, human IgG1, kappa, also called Ho Ab L235_04F) heavy: not shown light: DIVMTQSPLSLPVTPGEPASISCQASESLVHSNRNTYLHWYLQKPGQSPQLLIYKVSNRFSGVPDRFSGSGSGTDFTLKISRVEAEDVGVYYCSQNTHVPPTFGQGTKVEIERTVAAPSVFIFPPSDEQLKSGTASVVCLLNNFYPREAKVQWKVDNALQSGNSQESVTEQDSKDSTYSLSSTLTLSKADYEKHKVYACEVTHQGLSSPVTKSFNRGEC
5 | 97 % (GpH7-B3/GpL16-k0 = 100) | GpH7-B3 variant L328_02A/GpL16-k0 (antibody, human IgG1, kappa, also called Ho Ab L328_02A) heavy: not shown light: DIVMTQSPLSLPVTPGEPASISCQASESLVHSNRNTYLHWYLQKPGQSPQLLIYKVSNRFSGVPDRFSGSGSGTDFTLKISRVEAEDVGVYYCSQNTHVPPTFGQGTKVEIERTVAAPSVFIFPPSDEQLKSGTASVVCLLNNFYPREAKVQWKVDNALQSGNSQESVTEQDSKDSTYSLSSTLTLSKADYEKHKVYACEVTHQGLSSPVTKSFNRGEC
6 | 108 % (GpH7-B3/GpL16-k0 = 100) | GpH7-B3 variant L328_13S/GpL16-k0 (antibody, human IgG1, kappa, also called Ho Ab L328_13S) heavy: not shown light: DIVMTQSPLSLPVTPGEPASISCQASESLVHSNRNTYLHWYLQKPGQSPQLLIYKVSNRFSGVPDRFSGSGSGTDFTLKISRVEAEDVGVYYCSQNTHVPPTFGQGTKVEIERTVAAPSVFIFPPSDEQLKSGTASVVCLLNNFYPREAKVQWKVDNALQSGNSQESVTEQDSKDSTYSLSSTLTLSKADYEKHKVYACEVTHQGLSSPVTKSFNRGEC
7 | 42.8 % (GpH7-B3/GpL16-k0 = 100) | GpH7-B3 variant L234_09D/GpL16-k0 (antibody, human IgG1, kappa, also called Ho Ab L234_09D) heavy: not shown light: DIVMTQSPLSLPVTPGEPASISCQASESLVHSNRNTYLHWYLQKPGQSPQLLIYKVSNRFSGVPDRFSGSGSGTDFTLKISRVEAEDVGVYYCSQNTHVPPTFGQGTKVEIERTVAAPSVFIFPPSDEQLKSGTASVVCLLNNFYPREAKVQWKVDNALQSGNSQESVTEQDSKDSTYSLSSTLTLSKADYEKHKVYACEVTHQGLSSPVTKSFNRGEC
8 | 111 % (GpH7-B3/GpL16-k0 = 100) | GpH7-B3 variant L235_15Y/GpL16-k0 (antibody, human IgG1, kappa, also called Ho Ab L235_15Y) heavy: not shown light: DIVMTQSPLSLPVTPGEPASISCQASESLVHSNRNTYLHWYLQKPGQSPQLLIYKVSNRFSGVPDRFSGSGSGTDFTLKISRVEAEDVGVYYCSQNTHVPPTFGQGTKVEIERTVAAPSVFIFPPSDEQLKSGTASVVCLLNNFYPREAKVQWKVDNALQSGNSQESVTEQDSKDSTYSLSSTLTLSKADYEKHKVYACEVTHQGLSSPVTKSFNRGEC
9 | 53.8 % (GpH7-B3/GpL16-k0 = 100) | GpH7-B3 variant L234_20W/GpL16-k0 (antibody, human IgG1, kappa, also called Ho Ab L234_20W) heavy: not shown light: DIVMTQSPLSLPVTPGEPASISCQASESLVHSNRNTYLHWYLQKPGQSPQLLIYKVSNRFSGVPDRFSGSGSGTDFTLKISRVEAEDVGVYYCSQNTHVPPTFGQGTKVEIERTVAAPSVFIFPPSDEQLKSGTASVVCLLNNFYPREAKVQWKVDNALQSGNSQESVTEQDSKDSTYSLSSTLTLSKADYEKHKVYACEVTHQGLSSPVTKSFNRGEC
10 | 114 % (GpH7-B3/GpL16-k0 = 100) | GpH7-B3 variant L235_20W/GpL16-k0 (antibody, human IgG1, kappa, also called Ho Ab L235_20W) heavy: not shown light: DIVMTQSPLSLPVTPGEPASISCQASESLVHSNRNTYLHWYLQKPGQSPQLLIYKVSNRFSGVPDRFSGSGSGTDFTLKISRVEAEDVGVYYCSQNTHVPPTFGQGTKVEIERTVAAPSVFIFPPSDEQLKSGTASVVCLLNNFYPREAKVQWKVDNALQSGNSQESVTEQDSKDSTYSLSSTLTLSKADYEKHKVYACEVTHQGLSSPVTKSFNRGEC
11 | 118 % (GpH7-B3/GpL16-k0 = 100) | GpH7-B3 variant L328_14T/GpL16-k0 (antibody, human IgG1, kappa, also called Ho Ab L328_14T) heavy: not shown light: DIVMTQSPLSLPVTPGEPASISCQASESLVHSNRNTYLHWYLQKPGQSPQLLIYKVSNRFSGVPDRFSGSGSGTDFTLKISRVEAEDVGVYYCSQNTHVPPTFGQGTKVEIERTVAAPSVFIFPPSDEQLKSGTASVVCLLNNFYPREAKVQWKVDNALQSGNSQESVTEQDSKDSTYSLSSTLTLSKADYEKHKVYACEVTHQGLSSPVTKSFNRGEC
12 | 48.1 % (GpH7-B3/GpL16-k0 = 100) | GpH7-B3 variant L328_10E/GpL16-k0 (antibody, human IgG1, kappa, also called Ho Ab L328_10E) heavy: not shown light: DIVMTQSPLSLPVTPGEPASISCQASESLVHSNRNTYLHWYLQKPGQSPQLLIYKVSNRFSGVPDRFSGSGSGTDFTLKISRVEAEDVGVYYCSQNTHVPPTFGQGTKVEIERTVAAPSVFIFPPSDEQLKSGTASVVCLLNNFYPREAKVQWKVDNALQSGNSQESVTEQDSKDSTYSLSSTLTLSKADYEKHKVYACEVTHQGLSSPVTKSFNRGEC
13 | 39.9 % (GpH7-B3/GpL16-k0 = 100) | GpH7-B3 variant L234_10E/GpL16-k0 (antibody, human IgG1, kappa, also called Ho Ab L234_10E) heavy: not shown light: DIVMTQSPLSLPVTPGEPASISCQASESLVHSNRNTYLHWYLQKPGQSPQLLIYKVSNRFSGVPDRFSGSGSGTDFTLKISRVEAEDVGVYYCSQNTHVPPTFGQGTKVEIERTVAAPSVFIFPPSDEQLKSGTASVVCLLNNFYPREAKVQWKVDNALQSGNSQESVTEQDSKDSTYSLSSTLTLSKADYEKHKVYACEVTHQGLSSPVTKSFNRGEC
14 | 37.8 % (GpH7-B3/GpL16-k0 = 100) | GpH7-B3 variant N325_03V/GpL16-k0 (antibody, human IgG1, kappa, also called Ho Ab N325_03V) heavy: not shown light: DIVMTQSPLSLPVTPGEPASISCQASESLVHSNRNTYLHWYLQKPGQSPQLLIYKVSNRFSGVPDRFSGSGSGTDFTLKISRVEAEDVGVYYCSQNTHVPPTFGQGTKVEIERTVAAPSVFIFPPSDEQLKSGTASVVCLLNNFYPREAKVQWKVDNALQSGNSQESVTEQDSKDSTYSLSSTLTLSKADYEKHKVYACEVTHQGLSSPVTKSFNRGEC
15 | 73 % (GpH7-B3/GpL16-k0 = 100) | GpH7-B3 variant L235_09D/GpL16-k0 (antibody, human IgG1, kappa, also called Ho Ab L235_09D) heavy: not shown light: DIVMTQSPLSLPVTPGEPASISCQASESLVHSNRNTYLHWYLQKPGQSPQLLIYKVSNRFSGVPDRFSGSGSGTDFTLKISRVEAEDVGVYYCSQNTHVPPTFGQGTKVEIERTVAAPSVFIFPPSDEQLKSGTASVVCLLNNFYPREAKVQWKVDNALQSGNSQESVTEQDSKDSTYSLSSTLTLSKADYEKHKVYACEVTHQGLSSPVTKSFNRGEC
16 | 68.8 % (GpH7-B3/GpL16-k0 = 100) | GpH7-B3 variant L328_09D/GpL16-k0 (antibody, human IgG1, kappa, also called Ho Ab L328_09D) heavy: not shown light: DIVMTQSPLSLPVTPGEPASISCQASESLVHSNRNTYLHWYLQKPGQSPQLLIYKVSNRFSGVPDRFSGSGSGTDFTLKISRVEAEDVGVYYCSQNTHVPPTFGQGTKVEIERTVAAPSVFIFPPSDEQLKSGTASVVCLLNNFYPREAKVQWKVDNALQSGNSQESVTEQDSKDSTYSLSSTLTLSKADYEKHKVYACEVTHQGLSSPVTKSFNRGEC
